The values that follow come from article doi:10.1101/2022.02.17.480967.

The data set addresses H1.2 2-108 (UniProt P16403 2-108). The data set is described as follows: fluorescence polarization. (In general: In fluorescence polarisation assays a small probe gives low polarisation when free and higher when bound to something large.)

H1.2 2-108, sequence (P16403 2-108): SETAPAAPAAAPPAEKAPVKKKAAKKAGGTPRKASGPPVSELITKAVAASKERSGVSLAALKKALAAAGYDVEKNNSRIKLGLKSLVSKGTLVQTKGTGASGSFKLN

B1: fluorescein-labeled 30-mer DNA (printed strands are 27 nt) (dsDNA)
DNA 1: ATCATTAATATGAATTCGCCACATGCA
DNA 2: TGCATGTGGCGAATTCATATTAATGAT
Consider B1, for which the binding signal is 50 fold lower affinity than full-length H1.2.
